Test [1] in a line: discontinuous spectral NMNATse assay coupled to alcohol dehydrogenase (NAD to NADH, 340 nm). The following applies: specific activity; 37° C., pH 7.5, 2 mM ATP, NMN substrate; 1 unit = 1 micromole NADH per minute. In kind it is biochemical. How it is done:
The discontinuous spectral NMNATse assay procedure (used for both human NadD2_HS and NadR) coupled to alcohol dehydrogenase (ADH) catalyzed conversion of NAD to NADH was adapted from Balducci, E., et al., Biochem. J., 310:395-400 (1995), as described in U.S. Ser. No. 09/550,398, filed Apr. 14, 2000. The assay was performed in disposable UV-transparent plastic cuvettes in a 6-cuvette autosampler of Beckman DU-640 set at 37° C. The 500 μL mixture contained 100 mM HEPES, pH 7.5, 115 mM ethanol, 40 mM semicarbazide, 2 mM ATP, 3 units of ADH (Sigma), and 0.2-2 milliunits of NMNATse (0.1-10 μg depending on specific activity). A reaction was initiated by adding 10 μL of 50 mM NMN, and monitored at 340 nm over 20 minutes. An extinction coefficient of NADH equal to 6.22 mM^−1 cm^−1 was used for rate calculations. One unit of enzyme was defined as a quantity capable of producing 1 micromole of NADH per minute.

Test [2] in a line: discontinuous spectral NRKse assay coupled to NadD2_HS (NMNATse) and ADH. In kind it is biochemical. The following applies: for NRKse and NMNATse activity (summary in words): NMNATse and NRKse assays together; for RATIO: ratio NmR Kinase / NMNATse specific activity; for NmR Kinase: specific activity, 37° C., pH 8.0, 0.8 mM NmR, ATP, 1 unit = 1 micromole NADH per minute. The protocol: The discontinuous spectral NRKse assay was based on enzymatic coupling of NmR→NMN conversion to production of NAD, catalyzed by excess amounts of recombinant purified NadD2_HS enzyme (NMNATse). NAD production was further coupled to NADH conversion by ADH, as in the NMNATse assay described above.
The assay was performed in disposable UV-transparent plastic cuvettes in a 6-cuvette autosampler of Beckman DU-640 set at 37° C. The 500 μL mixture contained 100 mM Tris/HCl pH 8.0, 115 mM ethanol, 40 mM semicarbazide, 0.8 mM NmR, 0.15 units of NadD2_HS, 3 units of ADH (Sigma), and 0.2-2 milliunits of NRKse (0.2-2 μg, depending on the specific activity). A reaction was initiated by adding 50 μL of 50 mM ATP, and monitored at 340 nm over 20 minutes. An extinction coefficient of NADH equal to 6.22 mM^−1 cm^−1 was used for rate calculations. One unit of enzyme was defined as a quantity capable of producing 1 micromole of NADH per minute.

Some results are limits rather than exact numbers.

B1: NadR Salmonella: full-size NadR protein from Salmonella typhimurium, all three domains (HTH, NMNATse, NRKse), His-tagged recombinant (protein, UniProt P24518 1-410, looked up)
chain: MSSFDYLKTAIKQQGCTLQQVADASGMTKGYLSQLLNAKIKSPSAQKLEALHRFLGLEFPRRQKNIGVVFGKFYPLHTGHIYLIQRACSQVDELHIIMGYDDTRDRGLFEDSAMSQQPTVSDRLRWLLQTFKYQKNIRIHAFNEEGMEPYPHGWDVWSNGIKAFMAEKGIQPSWIYTSEEADAPQYLEHLGIETVLVDPERTFMNISGAQIRENPFRYWEYIPTEVKPFFVRTVAILGGESSGKSTLVNKLANIFNTTSAWEYGRDYVFSHLGGDEMALQYSDYDKIALGHAQYIDFAVKYANKVAFIDTDFVTTQAFCKKYEGREHPFVQALIDEYRFDLVILLENNTPWVADGLRSLGSSVDRKAFQNLLVEMLKENNIEFVHVKEADYDGRFLRCVELVKEMMGEQG
modifications: full-length His tag
notes: full-size NadR protein from Salmonella typhimurium, all three domains (HTH, NMNATse, NRKse), His-tagged recombinant
The molecule B1 registered an NMNATse in test [1] of 0.04 Un/mg. For the same molecule, in test [2], the “NRKse and NMNATse activity (summary in words)” value is “possess NRKse activity in addition to NMNATse activity”; the RATIO came out at 125; the “NmR Kinase” value was found to be 5 Un/mg.

B2: NadR H. influenzae; N-terminal domain: N-terminal domain of NadR from H. influenzae, amino acids 38-212, only NMNATse domain (protein, UniProt P44308 38-212, looked up, fragment)
chain: YNKHTQFLRYQEQIMSKTKEKKVGVIFGKFYPVHTGHINMIYEAFSKVDELHVIVCSDTVRDLKLFYDSKMKRMPTVQDRLRWMQQIFKYQKNQIFIHHLVEDGIPSYPNGWQSWSEAVKTLFHEKHFEPSIVFSSEPQDKAPYEKYLGLEVSLVDPDRTFFNVSATKIRTTPFQ
In test [1], B2 yielded an NMNATse of 3 Un/mg. Further, in test [2], the RATIO is reported as below 0.001 and the “NmR Kinase” value is recorded as below 0.003 Un/mg.

B3: NadR H. influenzae: N-truncated NadR protein from H. influenzae, amino acids 38-407, both NMNATse and NRKse domains (protein, UniProt P44308 38-407, looked up, fragment)
chain: YNKHTQFLRYQEQIMSKTKEKKVGVIFGKFYPVHTGHINMIYEAFSKVDELHVIVCSDTVRDLKLFYDSKMKRMPTVQDRLRWMQQIFKYQKNQIFIHHLVEDGIPSYPNGWQSWSEAVKTLFHEKHFEPSIVFSSEPQDKAPYEKYLGLEVSLVDPDRTFFNVSATKIRTTPFQYWKFIPKEARPFFAKTVAILGGESSGKSVLVNKLAAVFNTTSAWEYGREFVFEKLGGDEQAMQYSDYPQMALGHQRYIDYAVRHSHKIAFIDTDFITTQAFCIQYEGKAHPFLDSMIKEYPFDVTILLKNNTEWVDDGLRSLGSQKQRQQFQQLLKKLLDKYKVPYIEIESPSYLDRYNQVKAVIEKVLNEEEIS
B3 showed an NMNATse in test [1] of 0.9 Un/mg. In test [2], the “NRKse and NMNATse activity (summary in words)” value was “possess NRKse activity in addition to NMNATse activity”; the RATIO worked out at 0.02; the “NmR Kinase” value turned out to be 0.02 Un/mg.

Values taken from patent publication US20030175925A1, “Nicotinamide ribonucleoside kinase” (priority 2001, published 2003).
